Experimental findings from US20230104769A1 (MABWELL SHANGHAI BIOSCIENCE, published 2023) are described below.

Assay [1] concerns the target T1, recombinant human PD-1 protein (NCBI accession No.: NP_005009.2, 21aa-167aa) (human, UniProt Q15116 21-167).
T1 construct: range 21-167; also called recombinant human PD-1 extracellular domain protein; PD-1-ECD
The assay can be described thus: ELISA, plate coated with the protein at 1 µg/mL, biotinylated h317, HRP-streptavidin. The method, then: (§1) The plates were washed three times with PBS subsequently, and 5% BSA-PBS was added for blocking for 60 min at 37° C. […] Again, the plates were washed four times with PBST, then HRP-streptavidin (Cat: 019-035-098, Jackson Immuno Research) with a dilution of 1:100 was added for a 30 min incubation at 37° C. Once again, the plates were washed four times with PBST, and TMB substrate was added for developing color through incubating for 10 min at 37° C., then the reaction was terminated by adding 2 M HCl. With 630 nm as reference wavelength, the absorbance at a wavelength of 450 nm (A450 nm-630 nm) of each well in the plates was read and recorded.
A general note: ELISA stands for enzyme-linked immunosorbent assay.

In assay [2] the target is CTLA4 (Cat: 11159-H08H, Sino Biological Inc.) (human, UniProt P16410 36-162). Described as above. The method, then:
as §1

The target of assay [3] is CD28 (Cat: 11524-HCCH, Sino Biological Inc.) (human, UniProt P10747 19-152). Described as above. As to the method:
as §1

The target in assay [4] is T2, full-length human PD-1 N58A expressed on HEK293 cells (human, UniProt Q15116 25-288).
T2 construct: whole, on cells; Expression vector carries EGFP; the mutation removes the N-glycosylation site; also called PD-1-mut N58A
T2 sequence (Q15116 25-288 N58A): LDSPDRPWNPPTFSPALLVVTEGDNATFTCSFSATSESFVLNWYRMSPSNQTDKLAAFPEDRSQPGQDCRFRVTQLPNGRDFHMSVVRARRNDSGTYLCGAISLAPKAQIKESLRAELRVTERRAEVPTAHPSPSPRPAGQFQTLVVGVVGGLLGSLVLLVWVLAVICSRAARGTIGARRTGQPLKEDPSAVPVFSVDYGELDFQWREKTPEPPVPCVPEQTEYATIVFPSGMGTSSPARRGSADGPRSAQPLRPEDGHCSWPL
The assay can be described thus: flow cytometry on transfected HEK293 cells. As to the method:
The mutants obtained were inserted into an expression vector carrying EGFP to construct five plasmids expressing full-length human PD-1 (WT, N49A, N58A., N116A, N74A). […] 2 days after the transfection, the cells were collected to a 96-well plate, centrifuged at 1500 rpm for 2 minutes, and the supernatants in the wells were discarded. […] The working concentration of the primary antibodies was 2 μg/ml, and cells without primary antibodies added were used as negative controls. The mixtures obtained were centrifuged at 1500 rpm for 2 minutes, and supernatants were discarded. The cells in each well were resuspended by adding 200 μl PBS and the suspensions obtained were then centrifuged at 1500 rpm for 2 minutes, then supernatants were discarded. Later, the obtained cells were incubated with 200 μl goat anti-human IgG(Fc)-Cy5 (Cat: 12136, Lot: 017M4800V, Sigma) diluted with 5% BSA added into each well for 1 h at room temperature, then centrifuged at 1500 rpm for 2 minutes, and supernatants were discarded. The cells were resuspended by adding 200 μl PBS and the suspensions obtained were then centrifuged at 1500 rpm for 2 minutes, then supernatants were discarded. The cells again were resuspended by adding 200 μl PBS thereto and detected by flow cytometry (B49007AD, SNAW31211).

The target of assay [5] is T1, recombinant human PD-1 protein (NCBI …). As to the kind of experiment: ELISA, biotinylated h317 on plate-bound PD-1. As to the method: as §1, with “immuno” for “Immuno”
Assay [6] concerns the target T3, cynomolgus monkey PD-1 (Cat: 90311-C08H, Sino Biological Inc.) (cynomolgus monkey, UniProt B0LAJ3 25-170).
T3 construct: Bought recombinant protein; not shown: The vendor's tag
The assay can be described thus: ELISA, biotinylated h317 on plate-bound PD-1. The method, then: as §1, with “immuno” for “Immuno”

T1 sequence (Q15116 21-167 limits assumed, form in doubt): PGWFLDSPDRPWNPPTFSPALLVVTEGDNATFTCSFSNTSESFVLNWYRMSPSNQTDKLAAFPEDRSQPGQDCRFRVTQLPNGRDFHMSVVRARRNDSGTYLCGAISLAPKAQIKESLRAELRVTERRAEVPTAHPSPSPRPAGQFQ
Sequence of CTLA4 (Cat: 11159-H08H, Sino Biological Inc.) (P16410 36-162 limits assumed): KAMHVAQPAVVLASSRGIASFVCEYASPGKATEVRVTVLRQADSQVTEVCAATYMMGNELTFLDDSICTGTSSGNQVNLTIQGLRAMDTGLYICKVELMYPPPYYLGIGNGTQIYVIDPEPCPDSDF
T3 sequence (B0LAJ3 entry or part of it C08H C08H limits assumed): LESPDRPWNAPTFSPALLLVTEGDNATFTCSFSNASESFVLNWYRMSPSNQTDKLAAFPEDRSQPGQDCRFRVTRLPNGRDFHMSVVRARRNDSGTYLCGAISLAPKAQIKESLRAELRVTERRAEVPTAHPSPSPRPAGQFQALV

B1: h317 (humanized anti-human PD-1 antibody) (antibody, V domains shown)
VH: EVQLVESGGGLVKPGGSLRLSCAASGFTFSSYDMSWVRQAPGKGLEWVATISGGGSYTYYPDSVKGRFTISRDNAKNSLYLQMNSLRAEDTAVYYCASPDSSGVAYWGQGTLVTVSS
VL: DIVMTQSPLSLPVTPGEPASITCKASQDVETVVAWYLQKPGQSPRLLIYWASTRHTGVPDRFSGSGSGTDFTLKISRVEAEDVGVYYCQQYSRYPWTFGQGTKL
notes: also called h317-biotin; biotinylated h317
As a reminder, the EC50 (read off the curve) is the concentration needed to bring the measured effect to its halfway point. What is called EC50 is the midpoint of the concentration-response curve. Regarding B1, in assay [1], the “EC50 (read off the curve)” value was about 1 pM. The binding result is reported as “no binding (tested: 1 nM (log(nM) 0 on the axis))” in assay [2], “no binding (tested: 1 nM (log(nM) 0 on the axis))” in assay [3] and “no binding (tested: 2 µg/ml)” in assay [4]. Besides, the EC50 turned out to be 4.7 pM in assay [5] and 18.2 pM in assay [6].
